According to article PMC2953525, “Subtle Alterations in PCNA-Partner Interactions Severely Impair DNA Replication and Repair” (PLoS Biology, 2010):

Legend:
Experiment in all cases: two-hybrid; quantitative Y2H: generation time of the YRG2 strains in liquid SC-Leu-Trp-His, given relative to cells expressing WT PCNA; average of at least 3 experiments
Conditions in all cases: partners not purified
pol30-Rad27L2 = target: T1, pol30-Rad27L2 (yeast, UniProt P15873 1-258, IDCL DIDADFLKIEEL to D––VDTLKITEL)
T1 construct: PCNA (POL30), yeast; two residues after the first aspartic acid of the IDCL are deleted; source: yeast two-hybrid fusion (pAD-GAL4, strain YRG2)
T1 sequence: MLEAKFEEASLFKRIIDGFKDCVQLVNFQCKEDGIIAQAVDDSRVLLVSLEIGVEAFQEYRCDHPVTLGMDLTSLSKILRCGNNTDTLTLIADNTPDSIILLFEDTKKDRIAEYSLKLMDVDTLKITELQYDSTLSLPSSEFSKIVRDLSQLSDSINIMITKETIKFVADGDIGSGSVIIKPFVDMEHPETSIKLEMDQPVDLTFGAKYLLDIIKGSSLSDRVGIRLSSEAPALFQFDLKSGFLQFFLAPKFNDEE

pol30-Rad30E2 = target: T2, pol30-Rad30E2 (yeast, UniProt P15873 1-258, IDCL DIDADFLKIEEL to DDDWDFLKILEL)
T2 construct: PCNA (POL30), yeast; source: yeast two-hybrid fusion (pAD-GAL4, strain YRG2)
T2 sequence: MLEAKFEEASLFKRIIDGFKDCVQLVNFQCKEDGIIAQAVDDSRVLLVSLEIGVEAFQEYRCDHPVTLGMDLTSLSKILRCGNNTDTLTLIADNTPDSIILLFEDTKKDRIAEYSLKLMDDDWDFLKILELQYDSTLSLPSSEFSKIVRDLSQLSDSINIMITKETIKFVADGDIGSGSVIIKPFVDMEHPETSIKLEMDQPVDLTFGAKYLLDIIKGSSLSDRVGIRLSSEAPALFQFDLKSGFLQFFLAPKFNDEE

pol30-79 = target: T3, pol30-79 (yeast, UniProt P15873 1-258, IDCL DIDADFLKIEEL to DIDADFAKAEEL)
T3 construct: PCNA (POL30), yeast; the changes are then L126A and I128A; also called PCNA79; source: yeast two-hybrid fusion (pAD-GAL4, strain YRG2)
T3 sequence: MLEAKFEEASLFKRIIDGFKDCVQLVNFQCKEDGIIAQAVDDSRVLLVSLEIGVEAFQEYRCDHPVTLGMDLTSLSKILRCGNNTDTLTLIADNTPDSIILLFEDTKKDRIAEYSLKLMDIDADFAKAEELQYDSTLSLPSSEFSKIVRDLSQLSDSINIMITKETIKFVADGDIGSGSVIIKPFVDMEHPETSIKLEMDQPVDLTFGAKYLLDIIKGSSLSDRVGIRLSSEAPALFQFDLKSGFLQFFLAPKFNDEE

pol30-Rad30E9 = target: T4, pol30-Rad30E9 (yeast, UniProt P15873 1-258, IDCL DIDADFLKIEEL to DNDWDFLKIDEL)
T4 construct: PCNA (POL30), yeast; also called Pol30-Rad30E9p; source: yeast two-hybrid fusion (pAD-GAL4, strain YRG2)
T4 sequence: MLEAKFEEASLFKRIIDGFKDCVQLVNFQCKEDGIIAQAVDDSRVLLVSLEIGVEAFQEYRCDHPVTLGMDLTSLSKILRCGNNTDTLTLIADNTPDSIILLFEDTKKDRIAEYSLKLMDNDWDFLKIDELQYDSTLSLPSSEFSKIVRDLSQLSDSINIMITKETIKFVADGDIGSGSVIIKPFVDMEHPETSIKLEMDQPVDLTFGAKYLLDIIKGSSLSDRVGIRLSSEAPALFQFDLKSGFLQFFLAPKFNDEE

fold change in affinity relative to WT PCNA (Y2H generation time) (pol30-Rad27L2): 1.5 fold
fold change in affinity relative to WT PCNA (Y2H generation time) (pol30-Rad30E2): 0.4 fold
fold change in affinity relative to WT PCNA (Y2H generation time) (pol30-79): 0.5 fold
fold change in affinity relative to WT PCNA (Y2H generation time) (pol30-Rad30E9): 0.5 fold
B1: Rad27 (natural protein, yeast, UniProt P26793 1-382, looked up)
chain: MGIKGLNAIISEHVPSAIRKSDIKSFFGRKVAIDASMSLYQFLIAVRQQDGGQLTNEAGETTSHLMGMFYRTLRMIDNGIKPCYVFDGKPPDLKSHELTKRSSRRVETEKKLAEATTELEKMKQERRLVKVSKEHNEEAQKLLGLMGIPYIIAPTEAEAQCAELAKKGKVYAAASEDMDTLCYRTPFLLRHLTFSEAKKEPIHEIDTELVLRGLDLTIEQFVDLCIMLGCDYCESIRGVGPVTALKLIKTHGSIEKIVEFIESGESNNTKWKIPEDWPYKQARMLFLDPEVIDGNEINLKWSPPKEKELIEYLCDDKKFSEERVKSGISRLKKGLKSGIQGRLDGFFQVVPKTKEQLAAAAKRAQENKKLNKNKNKVTKGRR
notes: Rad27 (endonuclease), yeast; also called pBD-Rad27; source: yeast two-hybrid fusion (pBD-GAL4, strain YRG2)
